Reference: patent US20260274955A1 (JANUX THERAPEUTICS, published 2026)

Target: T1, Anti-CD28 Fab (SEQ ID NOs: 202, 203)
T1 construct: biotinylated and captured on neutravidin coated plates in the phage ELISA
Assay: phage binding ELISA, Fab on plate;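 also: clonal phage supernatant ELISA, wells preincubated with CD28 antigen or blocking buffer only, then bound phage detected using HRP-linked anti-M13 antibody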
Description: (§1) After panning, phage infected bacteria were plated out and colonies picked into 96 well blocks. Clonal phage was then amplified and separated from bacterial cells via centrifugation.
(§2) Clonal phage were harvested as crude supernatants and screened via standard ELISAs. […] Prior to the addition of clonal phage, wells were incubated with blocking buffer and CD28 antigen or blocking buffer alone. Without washing or aspirating, clonal phage supernatants were then added to the wells and incubated for a short time. Wells were then washed followed by detection of bound phage using a horse radish conjugated anti-M13 antibody. Clonal phage of interest were then sent for sequence analysis.

T1 sequence (VH, as listed by the source, chain 1 of 2): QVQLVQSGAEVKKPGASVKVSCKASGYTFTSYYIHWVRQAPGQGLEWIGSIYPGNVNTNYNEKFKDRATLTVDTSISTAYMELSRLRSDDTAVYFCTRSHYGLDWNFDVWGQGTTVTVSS
T1 sequence (VL, as listed by the source, chain 2 of 2): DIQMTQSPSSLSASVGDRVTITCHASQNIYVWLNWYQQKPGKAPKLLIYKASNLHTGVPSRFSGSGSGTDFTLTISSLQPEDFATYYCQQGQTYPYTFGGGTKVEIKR

Compared with TCSAGAHYVWPMCF [Phage-994], SCSAGASLQLSICL [Phage-992] is higher in “Anti-CD28 Fab (SEQ ID NOs: 202, 203) signal” value: 1.91 for the first, 1.92 for the second.

Going from TCSAGAHYPWPDCI [Phage-985] to LCNAGAMYKWPTCL [Phage-987], the “Anti-CD28 Fab (SEQ ID NOs: 202, 203) signal” value falls from 1.95 to 1.94.

Going from LCNAGAPYKWPTCL [Phage-1050] to TCRAGATYNWPFCL [Phage-996], the “Anti-CD28 Fab (SEQ ID NOs: 202, 203) signal” value rises from 1.66 to 1.9.

First: TCSAGAMWTWPYCF [Phage-989]
Second: TCSAGATYIWPMCF [Phage-995]
The “Anti-CD28 Fab (SEQ ID NOs: 202, 203) signal” value of the first is higher: 1.93 for the first, 1.9 for the second.

Compared with MCSAGAMYPWPLCL [Phage-988], TCSAGATWAWPSCF [Phage-993] is lower in “Anti-CD28 Fab (SEQ ID NOs: 202, 203) signal” value: 1.93 for the first, 1.92 for the second.

First: TCAAGAYWTWPACF [Phage-990]
Second: TCSAGAGYPWPLCY [Phage-991]
The “Anti-CD28 Fab (SEQ ID NOs: 202, 203) signal” value of the first is higher: 1.93 for the first, 1.92 for the second.

In the case of LCKPGVPNSWPTCL [Phage-984], the “Anti-CD28 Fab (SEQ ID NOs: 202, 203) signal” value is reported as 1.95.

Target: T1, Anti-CD28 Fab (SEQ ID NOs: 202, 203)
Assay: phage binding ELISA, Fab on plate, CD28 as competitor
Description: as §1, §2

Compared with TCSAGAHYVWPMCF [Phage-994], SCSAGASLQLSICL [Phage-992] is lower in “Anti-CD28 Fab signal in the presence of CD28” value (shortened to “Anti-CD28 Fab signal … of CD28”): 0.17 for the first, 0.06 for the second.

Compared with TCSAGAHYPWPDCI [Phage-985], LCNAGAMYKWPTCL [Phage-987] is lower in “Anti-CD28 Fab signal … of CD28” value: 0.07 for the first, 0.06 for the second.

LCNAGAPYKWPTCL [Phage-1050] and TCRAGATYNWPFCL [Phage-996] are the same in “Anti-CD28 Fab signal … of CD28” value: 0.07 for the first, 0.07 for the second.

TCSAGAMWTWPYCF [Phage-989] and TCSAGATYIWPMCF [Phage-995] are the same in “Anti-CD28 Fab signal … of CD28” value: 0.08 for the first, 0.08 for the second.

First: MCSAGAMYPWPLCL [Phage-988]
Second: TCSAGATWAWPSCF [Phage-993]
The “Anti-CD28 Fab signal … of CD28” value of the first is lower: 0.07 for the first, 0.1 for the second.

Going from TCAAGAYWTWPACF [Phage-990] to TCSAGAGYPWPLCY [Phage-991], the “Anti-CD28 Fab signal … of CD28” value falls from 0.09 to 0.08.

With LCKPGVPNSWPTCL [Phage-984] the “Anti-CD28 Fab signal … of CD28” value was 0.06.

Target: anti-CD28 Fab (SEQ ID NOs: 202, 203)
Sequence (VH, as listed by the source, chain 1 of 2): as the sequence (VH, as listed by the source, chain 1 of 2) above
Sequence (VL, as listed by the source, chain 2 of 2): as the sequence (VL, as listed by the source, chain 2 of 2) above
Assay: phage ELISA, Fab on plate, CD28 antigen as competitor;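 also: wells pre-incubated with CD28 antigen in blocking buffer (reference: blocking buffer only) before adding crude clonal phage supernatant, bound phage read with HRP-coupled anti-M13 antibody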
Description: as §1, §2

Going from TCADGAFWQWPVCL [Phage-1184] to TCAAGANWPWPECL [Phage-1189], the “Anti-CD28 Fab signal … of CD28” value rises from 0.07 to 0.08.

Compared with LCAAGATYPWPDCV [Phage-1188], SCAAGATWKWPECL [Phage-1181] is higher in “Anti-CD28 Fab signal … of CD28” value: 0.05 for the first, 0.07 for the second.

First: SCSAVFSYRWPKCL [Phage-1195]
Second: TCSAGATYSWPYCL [Phage-1186]
The “Anti-CD28 Fab signal … of CD28” value of the first is lower: 0.06 for the first, 0.07 for the second.

Compared with TCAAGAHYSWPFCM [Phage-1128], LCAAGAAWEWPMCF [Phage-1167] is lower in “Anti-CD28 Fab signal … of CD28” value: 0.07 for the first, 0.06 for the second.

First: TCAAGAVWTWPICF [Phage-1183]
Second: TCAAGAAYTWPVCF [Phage-1162]
The “Anti-CD28 Fab signal … of CD28” value of the first is lower: 0.05 for the first, 0.08 for the second.

First: SCSAGATWAWPQCF [Phage-1194]
Second: PCSDGVAYPWPYCV [Phage-1191]
The “Anti-CD28 Fab signal … of CD28” value of the first is higher: 0.08 for the first, 0.06 for the second.

Going from TCAAGVPYKWPPCL [Phage-1169] to SCAAGAHYPWPECL [Phage-1160], the “Anti-CD28 Fab signal … of CD28” value falls from 0.06 to 0.05.

Going from SCSAGATYTWPACL [Phage-1158] to LCAAGAYYPWPLCF [Phage-1173], the “Anti-CD28 Fab signal … of CD28” value falls from 0.07 to 0.06.

Compared with LCEEFFHYSWPLCL [Phage-1190], TCAAGATWLWPWCL [Phage-1182] is higher in “Anti-CD28 Fab signal … of CD28” value: 0.06 for the first, 0.07 for the second.

First: RCAAVFSYTWPPCL [Phage-1171]
Second: LCSAGAMYPWPVCL [Phage-1193]
The “Anti-CD28 Fab signal … of CD28” value of the first is lower: 0.07 for the first, 0.08 for the second.

Going from SCAEVFNYVWPFCF [Phage-1161] to TCAAGATYEWPSCL [Phage-1165], the “Anti-CD28 Fab signal … of CD28” value rises from 0.07 to 0.09.

TCSAGAHYSWPKCF [Phage-1159] and SCADGAIWEWPWCF [Phage-1164] are the same in “Anti-CD28 Fab signal … of CD28” value: 0.07 for the first, 0.07 for the second.

First: TCSAGASWGWPWCL [Phage-1185]
Second: SCSAGAGWAWPMCF [Phage-1196]
The “Anti-CD28 Fab signal … of CD28” value of the first is lower: 0.07 for the first, 0.08 for the second.

SCAAGATYTWPFCL [Phage-1170] and NCAAGAMYSWPTCL [Phage-1178] are the same in “Anti-CD28 Fab signal … of CD28” value: 0.07 for the first, 0.07 for the second.

First: TCTAGFSYKWPTCL [Phage-1174]
Second: SCSAGAMYTWPTCL [Phage-1166]
The “Anti-CD28 Fab signal … of CD28” value of the first is higher: 0.09 for the first, 0.08 for the second.

Compared with SCAAGFDYGWPMCL [Phage-1197], WCDQFFHYKWPLCL [Phage-1126] is higher in “Anti-CD28 Fab signal … of CD28” value: 0.06 for the first, 0.07 for the second.

First: TCAAGANYSWPACL [Phage-1199]
Second: TCAAGATYMWPVCL [Phage-1180]
The “Anti-CD28 Fab signal … of CD28” value of the first is higher: 0.08 for the first, 0.07 for the second.

Going from SCAAGAMWEWPKCF [Phage-1163] to SCAAGATYSWPACL [Phage-1177], the “Anti-CD28 Fab signal … of CD28” value falls from 0.09 to 0.07.

Compared with SCAAGATYVWPMCF [Phage-1127], SCAAGAHWSWPVCF [Phage-1192] is higher in “Anti-CD28 Fab signal … of CD28” value: 0.07 for the first, 0.08 for the second.

SCADGFNYVWPLCF [Phage-1198] and QCSAGATYAWPFCL [Phage-1168] are the same in “Anti-CD28 Fab signal … of CD28” value: 0.08 for the first, 0.08 for the second.

Target: anti-CD28 Fab (SEQ ID NOs: 202, 203)
Assay: phage ELISA, Fab on plate;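 also: ELISA of crude clonal phage supernatants on the plate, wells preloaded with CD28 antigen or only blocking buffer, captured phage read out via HRP-linked anti-M13 antibody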
Description: as §1, §2

First: TCADGAFWQWPVCL [Phage-1184]
Second: TCAAGANWPWPECL [Phage-1189]
The “Anti-CD28 Fab signal” value of the first is higher: 1.22 for the first, 1.21 for the second.

Compared with LCAAGATYPWPDCV [Phage-1188], SCAAGATWKWPECL [Phage-1181] is higher in “Anti-CD28 Fab signal” value: 1.21 for the first, 1.24 for the second.

Compared with SCSAVFSYRWPKCL [Phage-1195], TCSAGATYSWPYCL [Phage-1186] is higher in “Anti-CD28 Fab signal” value: 1.18 for the first, 1.22 for the second.

First: TCAAGAHYSWPFCM [Phage-1128]
Second: LCAAGAAWEWPMCF [Phage-1167]
The “Anti-CD28 Fab signal” value of the first is higher: 1.42 for the first, 1.3 for the second.

Going from TCAAGAVWTWPICF [Phage-1183] to TCAAGAAYTWPVCF [Phage-1162], the “Anti-CD28 Fab signal” value rises from 1.23 to 1.32.

First: SCSAGATWAWPQCF [Phage-1194]
Second: PCSDGVAYPWPYCV [Phage-1191]
The “Anti-CD28 Fab signal” value of the first is lower: 1.19 for the first, 1.2 for the second.

First: TCAAGVPYKWPPCL [Phage-1169]
Second: SCAAGAHYPWPECL [Phage-1160]
The “Anti-CD28 Fab signal” value of the first is lower: 1.29 for the first, 1.32 for the second.

Going from SCSAGATYTWPACL [Phage-1158] to LCAAGAYYPWPLCF [Phage-1173], the “Anti-CD28 Fab signal” value falls from 1.34 to 1.28.

Compared with LCEEFFHYSWPLCL [Phage-1190], TCAAGATWLWPWCL [Phage-1182] is higher in “Anti-CD28 Fab signal” value: 1.21 for the first, 1.23 for the second.

Going from RCAAVFSYTWPPCL [Phage-1171] to LCSAGAMYPWPVCL [Phage-1193], the “Anti-CD28 Fab signal” value falls from 1.29 to 1.19.

SCAEVFNYVWPFCF [Phage-1161] and TCAAGATYEWPSCL [Phage-1165] are the same in “Anti-CD28 Fab signal” value: 1.32 for the first, 1.32 for the second.

First: TCSAGAHYSWPKCF [Phage-1159]
Second: SCADGAIWEWPWCF [Phage-1164]
The “Anti-CD28 Fab signal” value of the first is higher: 1.33 for the first, 1.32 for the second.

First: TCSAGASWGWPWCL [Phage-1185]
Second: SCSAGAGWAWPMCF [Phage-1196]
The “Anti-CD28 Fab signal” value of the first is higher: 1.22 for the first, 1.16 for the second.

Going from SCAAGATYTWPFCL [Phage-1170] to NCAAGAMYSWPTCL [Phage-1178], the “Anti-CD28 Fab signal” value falls from 1.29 to 1.25.

Compared with TCTAGFSYKWPTCL [Phage-1174], SCSAGAMYTWPTCL [Phage-1166] is higher in “Anti-CD28 Fab signal” value: 1.28 for the first, 1.31 for the second.

Compared with SCAAGFDYGWPMCL [Phage-1197], WCDQFFHYKWPLCL [Phage-1126] is higher in “Anti-CD28 Fab signal” value: 1.16 for the first, 1.42 for the second.

Compared with TCAAGANYSWPACL [Phage-1199], TCAAGATYMWPVCL [Phage-1180] is higher in “Anti-CD28 Fab signal” value: 1.14 for the first, 1.24 for the second.

First: SCAAGAMWEWPKCF [Phage-1163]
Second: SCAAGATYSWPACL [Phage-1177]
The “Anti-CD28 Fab signal” value of the first is higher: 1.32 for the first, 1.25 for the second.

First: SCAAGATYVWPMCF [Phage-1127]
Second: SCAAGAHWSWPVCF [Phage-1192]
The “Anti-CD28 Fab signal” value of the first is higher: 1.42 for the first, 1.2 for the second.

Going from SCADGFNYVWPLCF [Phage-1198] to QCSAGATYAWPFCL [Phage-1168], the “Anti-CD28 Fab signal” value rises from 1.14 to 1.29.
